Data on eleven substances can be found in US20100041875A1.

Bounds are passed on as bounds.

Test [1] addresses wild-type JR-FL SOS gp140 (trimer) (HIV-1 isolate JR-FL (subtype B)) (UniProt P20871). Briefly: SPR (BIAcore X): agent captured via Fc on protein G chip, 5 nM purified gp140 trimer injected.
In test [2] the target is JR-FL gp41 NT 1-5 SOS gp140 mutant (trimer) (HIV-1 isolate JR-FL (subtype B)) (UniProt P20871). The test is described as above.
Test [3] deals with JR-FL gp41 NT 1-5 mutant Env (full-length gp160) (HIV-1 isolate JR-FL (subtype B)) (UniProt P20871). Briefly: cell-based or functional assay.
In test [4] the target is full-length WT JR-FL (gp160) Env (JR-FL WT) (HIV-1 isolate JR-FL (subtype B)) (UniProt P20871). Nature of the test: cell-based or functional assay.
In test [5] the target is wild-type JR-FL SOS gp140 (trimer) (HIV-1 isolate JR-FL (subtype B)) (UniProt P20871). Briefly: SPR, with against without D1D2-CD4. A general note: SPR reads the build-up and loss of mass on a sensor chip optically.
Test [6] addresses JR-FL gp41 NT 1-5 SOS gp140 mutant (trimer) (HIV-1 isolate JR-FL (subtype B)) (UniProt P20871). Nature of the test: SPR, with against without D1D2-CD4.
Test [7] concerns the target wild-type JR-FL SOS gp140 (trimer) (HIV-1 isolate JR-FL (subtype B)) (UniProt P20871). Nature of the test: SPR (BIAcore X): agent captured via Fc on protein G chip, 5 nM purified gp140 trimer injected, no CD4.
Test [8] deals with JR-FL gp41 NT 1-5 SOS gp140 mutant (trimer) (HIV-1 isolate JR-FL (subtype B)) (UniProt P20871). The test is described as above.
In test [9] the target is wild-type JR-FL SOS gp140 (trimer) (HIV-1 isolate JR-FL (subtype B)) (UniProt P20871). Briefly: SPR (BIAcore X): 17b captured via Fc on protein G chip, 5 nM gp140 trimer pre-incubated 1 h with 6-molar excess D1D2-CD4.
Test [10] deals with JR-FL gp41 NT 1-5 SOS gp140 mutant (trimer) (HIV-1 isolate JR-FL (subtype B)) (UniProt P20871). The test is described as above.

“CD4-IgG2 (PRO 542) (from UniProt P01730 26-204) (Fc fusion)”: the results for the Mean RU at end of injection (t = 180 s) in test [1] and in test [2] were 212 RU and 224 RU, respectively. Also, the neutralization of Env-pseudotyped virus infectivity (U87.CD4.CCR5 cells), mean IC50 in [3] was determined as 0.74 µg/mL; in [4], 0.82 µg/mL.
The corresponding values for MAb 2F5 (antibody) are 191 RU, 216 RU, 5.9 µg/mL and 6.2 µg/mL.
The corresponding values for MAb 4E10 (antibody) are 83 RU, 94 RU, 14.1 µg/mL and 13.4 µg/mL.
Take MAb 15e (antibody): the neutralization of Env-pseudotyped virus infectivity (U87.CD4.CCR5 cells), mean IC50 in test [3] and in test [4] was over 50 µg/mL in each case.
As to MAb 17b (antibody), the fold induction of 17b binding by D1D2-CD4 was 5 fold in [5] and 25 fold in test [6]. The Mean RU at end of injection (t = 180 s) in [7] was determined as 39 RU; in test [8], 14 RU; in [9], 237 RU; in test [10], 399 RU. In addition, the neutralization in the presence of sCD4, fold against the WT virus in test [3] turned out to be 2 fold. The neutralization of Env-pseudotyped virus infectivity (U87.CD4.CCR5 cells), mean IC50 in [3] and in test [4] was over 50 µg/mL throughout. In addition, the neutralization of Env-pseudotyped virus infectivity in the presence of sCD4 (17b + sCD4), mean IC50 in [3] was found to be 15.2 µg/mL; in test [4], 25.9 µg/mL.
Turning to MAb A32 (antibody), the neutralization of Env-pseudotyped virus infectivity (U87.CD4.CCR5 cells), mean IC50 in test [3] and in [4] was over 50 µg/mL throughout.
Regarding MAb F425-B4e8 (antibody), the neutralization of Env-pseudotyped virus infectivity (U87.CD4.CCR5 cells), mean IC50 amounted to 2.64 µg/mL in [3] and 2.94 µg/mL in test [4].
In the case of MAb b6 (antibody), the Mean RU at end of injection (t = 180 s) in test [1] was determined as 391 RU; in [2] it was 233 RU. Besides, the neutralization of Env-pseudotyped virus infectivity (U87.CD4.CCR5 cells), mean IC50 in [3] and in test [4] was over 50 µg/mL each time.
MAb b12 (antibody): the Mean RU at end of injection (t = 180 s) is 223 RU in test [1] and 195 RU in test [2]. The neutralization of Env-pseudotyped virus infectivity (U87.CD4.CCR5 cells), mean IC50 in test [3] worked out at 0.17 µg/mL; in test [4], 0.15 µg/mL.
The substance T-20 (Enfuvirtide) (peptide) registered a neutralization of Env-pseudotyped virus infectivity (U87.CD4.CCR5 cells), mean IC50 in [3] of 11.5 nM. In [4], the IC50 of neutralization, fold against the mutant came to 2 fold and the neutralization of Env-pseudotyped virus infectivity (U87.CD4.CCR5 cells), mean IC50 was 24.2 nM.
Regarding monoclonal antibody (MAb) PA-1, the Mean RU at end of injection (t = 180 s) is 242 RU in [1] and 123 RU in test [2]. Besides, the neutralization of Env-pseudotyped virus infectivity (U87.CD4.CCR5 cells), mean IC50 in [3] and in test [4] was over 50 µg/mL throughout.
